Results published in article PMC11144216.

Target: diffusible Aβ aggregates from postmortem frontal cortex of AD patients (human (endogenous in postmortem frontal cortex))
Assay: single-molecule pull-down (SiMPull); soaked-brain extracts (neat) of frontal cortex of APOE4/4 and APOE3/3 AD patients; captured by biotinylated 6E10; detected with Alexa-Fluor-647 6E10 and Alexa-Fluor-488 EPR19392; two-colour TIRF, colocalisation

Substance | percent of Aβ aggregates that are co-aggregates (colocalisation by number) [%]
apoE3 in frontal-cortex extracts of homozygous APOE3 AD patients (from UniProt P02649 19-317) (natural protein) | 1
apoE4 in frontal-cortex extracts of homozygous APOE4 AD patients (from UniProt P02649 19-317) (natural protein) | 5
